Changes are numbered by the printed parent chain.
How the values were obtained:
[1] = target: T1, His-SMAD4^WT, Q13485; assay: AlphaScreen or HTRF; conditions: remark: other sources report otherwise
T1 chain: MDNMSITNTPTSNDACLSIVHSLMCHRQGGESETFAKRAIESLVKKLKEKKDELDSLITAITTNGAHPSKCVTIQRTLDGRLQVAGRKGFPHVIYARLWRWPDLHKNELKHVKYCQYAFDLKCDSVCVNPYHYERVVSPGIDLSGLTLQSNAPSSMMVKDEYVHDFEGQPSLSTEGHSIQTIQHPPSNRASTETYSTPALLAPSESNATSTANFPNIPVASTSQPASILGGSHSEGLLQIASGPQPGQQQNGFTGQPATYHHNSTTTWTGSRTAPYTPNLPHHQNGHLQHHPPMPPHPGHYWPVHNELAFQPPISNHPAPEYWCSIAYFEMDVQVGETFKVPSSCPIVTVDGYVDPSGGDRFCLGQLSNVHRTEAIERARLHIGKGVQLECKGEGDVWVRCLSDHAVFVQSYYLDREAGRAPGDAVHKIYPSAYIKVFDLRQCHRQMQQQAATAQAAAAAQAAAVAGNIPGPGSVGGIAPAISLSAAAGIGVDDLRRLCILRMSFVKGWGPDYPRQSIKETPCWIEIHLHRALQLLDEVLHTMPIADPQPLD

[2] = target: T2, His-SMAD4^R361H, Q13485; assay: AlphaScreen or HTRF; conditions: remark: other sources report otherwise
T2 chain: T1 chain with R361H

B1: Flag-SMAD3, P84022 1-425 (natural protein)
chain: MSSILPFTPPIVKRLLGWKKGEQNGQEEKWCEKAVKSLVKKLKKTGQLDELEKAITTQNVNTKCITIPRSLDGRLQVSHRKGLPHVIYCRLWRWPDLHSHHELRAMELCEFAFNMKKDEVCVNPYHYQRVETPVLPPVLVPRHTEIPAEFPPLDDYSHSIPENTNFPAGIEPQSNIPETPPPGYLSEDGETSDHQMNHSMDAGSPNLSPNPMSPAHNNLDLQPVTYCEPAFWCSISYYELNQRVGETFHASQPSMTVDGFTDPSNSERFCLGLLSNVNRNAAVELTRRHIGRGVRLYYIGGEVFAECLSDSAIFVQSPNCNQRYGWHPATVCKIPPGCNLKIFNNQEFAALLAQSVNQGFEAVYQLTRMCTIRMSFVKGWGAEYRRQTVTSTPCWIELHLNGPLQWLDKVLTQMGSPSIRCSSVS
- signal-to-background ratio (TR-FRET) [1]: 30 fold
- EC50 of Go-6983 in enhancing the PPI [2]: 15.2 µM
- EC50 of PKC-412 in enhancing the PPI [2]: > 100 µM
- EC50 of Ro-31-8220 in enhancing the PPI [2]: 3.9 µM
- EC50 of UCN-1028c in enhancing the PPI [2]: > 100 µM
- signal-to-background ratio (TR-FRET) [2]: 10 fold

Reference: article PMC10053325
